Consider one substance from patent US20070280947A1.

For assay [1], the target named is Human Tie-1 (human) (UniProt P35590). Kind of assay: cell-based or functional assay.
In assay [2] the target is Human Tie-2 (human) (UniProt Q02763). Kind of assay: cell-based or functional assay.
Chain of UniProt Q02763 (Q02763 23-1124 Q346P/T695I): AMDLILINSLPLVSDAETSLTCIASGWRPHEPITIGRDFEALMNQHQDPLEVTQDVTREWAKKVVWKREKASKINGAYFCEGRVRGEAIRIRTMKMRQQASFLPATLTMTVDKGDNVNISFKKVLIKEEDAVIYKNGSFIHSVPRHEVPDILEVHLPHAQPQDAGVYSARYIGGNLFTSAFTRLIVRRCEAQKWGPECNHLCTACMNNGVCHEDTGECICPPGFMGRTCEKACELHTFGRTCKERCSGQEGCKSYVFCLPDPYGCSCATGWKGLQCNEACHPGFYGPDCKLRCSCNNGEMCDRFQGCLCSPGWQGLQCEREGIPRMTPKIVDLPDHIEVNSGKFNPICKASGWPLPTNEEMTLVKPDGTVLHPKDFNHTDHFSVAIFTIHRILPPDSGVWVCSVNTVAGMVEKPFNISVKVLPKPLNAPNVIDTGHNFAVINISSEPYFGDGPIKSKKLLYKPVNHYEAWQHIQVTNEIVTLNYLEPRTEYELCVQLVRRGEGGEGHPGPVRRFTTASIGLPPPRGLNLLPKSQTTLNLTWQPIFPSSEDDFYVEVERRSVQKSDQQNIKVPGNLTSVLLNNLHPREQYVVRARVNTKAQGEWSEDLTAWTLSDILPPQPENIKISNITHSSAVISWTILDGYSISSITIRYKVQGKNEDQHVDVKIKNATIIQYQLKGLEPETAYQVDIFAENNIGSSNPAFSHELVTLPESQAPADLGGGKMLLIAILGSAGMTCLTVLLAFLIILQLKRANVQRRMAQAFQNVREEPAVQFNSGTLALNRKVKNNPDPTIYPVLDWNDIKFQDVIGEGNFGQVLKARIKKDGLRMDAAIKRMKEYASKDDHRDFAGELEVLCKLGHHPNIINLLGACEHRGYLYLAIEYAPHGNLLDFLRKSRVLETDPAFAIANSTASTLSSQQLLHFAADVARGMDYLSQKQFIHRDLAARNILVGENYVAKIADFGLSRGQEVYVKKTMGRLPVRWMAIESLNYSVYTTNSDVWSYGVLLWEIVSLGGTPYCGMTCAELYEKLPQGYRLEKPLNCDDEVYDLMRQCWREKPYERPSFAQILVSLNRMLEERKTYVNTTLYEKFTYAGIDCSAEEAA

Chain of UniProt P35590 (P35590 25-1138): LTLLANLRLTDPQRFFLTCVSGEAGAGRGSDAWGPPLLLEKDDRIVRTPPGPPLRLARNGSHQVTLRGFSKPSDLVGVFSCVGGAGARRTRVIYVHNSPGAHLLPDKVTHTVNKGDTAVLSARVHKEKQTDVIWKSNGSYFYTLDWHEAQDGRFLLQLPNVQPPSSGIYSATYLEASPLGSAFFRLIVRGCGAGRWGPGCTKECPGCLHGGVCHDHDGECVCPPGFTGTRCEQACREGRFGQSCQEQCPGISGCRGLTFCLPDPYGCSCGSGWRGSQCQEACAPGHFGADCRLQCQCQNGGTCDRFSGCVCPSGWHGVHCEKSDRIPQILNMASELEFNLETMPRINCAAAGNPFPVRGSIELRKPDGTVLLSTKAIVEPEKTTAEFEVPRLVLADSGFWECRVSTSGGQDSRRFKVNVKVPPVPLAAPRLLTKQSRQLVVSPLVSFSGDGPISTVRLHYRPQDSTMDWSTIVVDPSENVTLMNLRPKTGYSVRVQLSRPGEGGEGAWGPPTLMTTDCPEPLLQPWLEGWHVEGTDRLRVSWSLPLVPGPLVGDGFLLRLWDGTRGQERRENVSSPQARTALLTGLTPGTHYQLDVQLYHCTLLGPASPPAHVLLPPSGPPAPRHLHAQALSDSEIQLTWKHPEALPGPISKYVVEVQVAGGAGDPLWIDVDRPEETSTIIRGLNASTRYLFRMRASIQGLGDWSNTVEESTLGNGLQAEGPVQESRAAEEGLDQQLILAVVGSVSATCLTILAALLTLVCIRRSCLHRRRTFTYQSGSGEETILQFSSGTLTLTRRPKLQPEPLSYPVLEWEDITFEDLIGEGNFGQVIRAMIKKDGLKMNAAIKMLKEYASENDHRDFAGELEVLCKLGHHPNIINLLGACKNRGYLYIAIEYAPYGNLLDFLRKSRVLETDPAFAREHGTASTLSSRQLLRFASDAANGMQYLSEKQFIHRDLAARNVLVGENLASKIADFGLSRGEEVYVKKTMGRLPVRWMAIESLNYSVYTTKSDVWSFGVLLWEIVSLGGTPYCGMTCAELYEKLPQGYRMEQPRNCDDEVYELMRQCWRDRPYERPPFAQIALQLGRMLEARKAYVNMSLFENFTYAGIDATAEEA

With “COMP-Ang-1 chimeric protein (from UniProt Q15389 256-498) (ligand)”, the COMP-Ang-1 concentration giving maximal receptor phosphorylation in assay [1] and in assay [2] was 600 ng/mL throughout. Also, the COMP-Ang-1 concentration giving significant receptor phosphorylation in assay [1] and in assay [2] was 100 ng/mL throughout.
